# Laboratory results published in PMC10928148.
# Biological target: Delta variant S protein on plant-produced virus-like particles (SARS-CoV-2 (Delta variant)) (UniProt P0DTC2)
# Experiment: ELISA
row,Substance,EC50 [nM]
1,COVA2-15 IgG (antibody),9
2,COVA2-15 secretory IgA1 (from UniProt P01591 23-159; P01833 19-603) (antibody),0.09

# Biological target: Delta variant S protein on plant-produced virus-like particles (SARS-CoV-2 (Delta variant)) (UniProt P0DTC2)
# Experiment: ELISA
# Remark: another data set of the same source
row,Substance,EC50 [nM]
1,COVA2-15 secretory IgA2 (from UniProt P01591 23-159; P01833 19-764) (antibody),0.542
2,COVA2-15 monomeric IgA2 (antibody),2.06
3,COVA2-15 secretory IgA1 (from UniProt P01591 23-159; P01833 19-764) (antibody),0.086
4,COVA2-15 monomeric IgA1 (antibody),1.95
5,COVA2-15 IgG (antibody),9.03
